Assay results taken from paper PMC11849630.

Target: eGFP-tagged htau 441 ΔK280 mutant (eGFP-tau ΔK280) (human) (UniProt P10636)
Experiment: fluorescence correlation spectroscopy (FCS/FCCS) in live cells; HEK293T cells overexpressing fluorescent-protein-fused tau; diffusion coefficient fitted (3D normal diffusion), mass by Stokes-Einstein, calibrated with eGFP-mCherry fusion; only tau not bound to microtubules

- stoichiometry N: 19
Substance: eGFP-tagged htau 441 ΔK280 mutant (eGFP-tau ΔK280) (from UniProt P10636-8 1-441) (natural protein)
